The results in this text go back to patent publication US20240190962A1.

Assay in all cases: cell-based or functional assay
Experiment [1] has as its target T1, IFN-γ receptor (IFNGR1, IFNGR2) (UniProt P15260).
T1 sequence (looked up) 1: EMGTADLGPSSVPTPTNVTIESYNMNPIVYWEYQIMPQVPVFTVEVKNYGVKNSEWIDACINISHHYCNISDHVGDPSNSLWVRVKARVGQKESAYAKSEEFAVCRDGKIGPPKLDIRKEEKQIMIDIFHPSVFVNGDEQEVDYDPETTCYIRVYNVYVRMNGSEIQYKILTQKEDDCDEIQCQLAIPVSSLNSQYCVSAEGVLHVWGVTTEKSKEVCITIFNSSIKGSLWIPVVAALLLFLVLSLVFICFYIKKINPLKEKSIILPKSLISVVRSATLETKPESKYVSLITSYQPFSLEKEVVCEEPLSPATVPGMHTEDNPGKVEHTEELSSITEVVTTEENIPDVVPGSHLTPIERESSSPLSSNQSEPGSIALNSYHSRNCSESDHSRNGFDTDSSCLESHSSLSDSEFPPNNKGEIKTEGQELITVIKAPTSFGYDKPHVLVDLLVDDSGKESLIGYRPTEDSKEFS
T1 sequence (looked up) 2: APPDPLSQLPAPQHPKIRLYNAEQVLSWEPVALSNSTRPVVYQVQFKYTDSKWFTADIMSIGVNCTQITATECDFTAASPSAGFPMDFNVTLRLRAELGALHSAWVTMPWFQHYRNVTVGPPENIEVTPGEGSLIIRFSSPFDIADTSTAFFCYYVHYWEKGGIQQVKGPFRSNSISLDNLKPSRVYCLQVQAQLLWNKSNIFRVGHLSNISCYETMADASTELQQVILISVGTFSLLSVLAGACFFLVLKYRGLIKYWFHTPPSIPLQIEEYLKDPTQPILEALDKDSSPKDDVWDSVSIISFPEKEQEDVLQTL

Experiment [2] concerns the target human IL-10 receptor (hIL-10Rα, hIL-10Rβ) (human) (UniProt Q13651).
Experiment [3] has as its target human IL-12 receptor complex (IL-12Rβ1, IL-12Rβ2) (human) (UniProt P42701).
Experiment [4] has as its target IL-23 receptor complex (IL-12Rβ1, IL-23R) (UniProt P42701).

Sequence of human IL-12 receptor complex (IL-12Rβ1, IL-12Rβ2) (human) (Q99665 24-862, chain 2 of 2, other chains not shown): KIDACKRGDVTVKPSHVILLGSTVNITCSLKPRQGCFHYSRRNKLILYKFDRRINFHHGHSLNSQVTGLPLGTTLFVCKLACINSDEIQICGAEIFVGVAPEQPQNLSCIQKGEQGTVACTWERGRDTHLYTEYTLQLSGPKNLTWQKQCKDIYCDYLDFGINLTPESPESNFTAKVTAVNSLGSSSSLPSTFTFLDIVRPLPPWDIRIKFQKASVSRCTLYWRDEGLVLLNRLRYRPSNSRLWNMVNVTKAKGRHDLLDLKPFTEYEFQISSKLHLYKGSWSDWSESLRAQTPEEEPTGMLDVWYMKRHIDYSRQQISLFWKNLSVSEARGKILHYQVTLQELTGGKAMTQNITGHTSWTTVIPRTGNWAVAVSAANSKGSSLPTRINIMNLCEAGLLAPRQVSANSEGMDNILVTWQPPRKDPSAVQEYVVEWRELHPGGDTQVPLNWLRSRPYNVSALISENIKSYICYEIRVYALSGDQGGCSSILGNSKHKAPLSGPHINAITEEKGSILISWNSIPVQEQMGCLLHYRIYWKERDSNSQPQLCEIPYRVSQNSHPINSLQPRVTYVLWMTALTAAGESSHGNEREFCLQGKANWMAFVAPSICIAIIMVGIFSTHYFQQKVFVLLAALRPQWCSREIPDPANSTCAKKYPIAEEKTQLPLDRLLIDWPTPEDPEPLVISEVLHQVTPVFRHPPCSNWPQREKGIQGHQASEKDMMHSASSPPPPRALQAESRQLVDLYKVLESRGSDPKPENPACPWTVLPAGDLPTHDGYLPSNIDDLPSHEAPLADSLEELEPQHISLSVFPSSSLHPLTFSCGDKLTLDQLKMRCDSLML
Sequence of recombinant human IFN-γ (free state) (P01579 24-166 limits assumed): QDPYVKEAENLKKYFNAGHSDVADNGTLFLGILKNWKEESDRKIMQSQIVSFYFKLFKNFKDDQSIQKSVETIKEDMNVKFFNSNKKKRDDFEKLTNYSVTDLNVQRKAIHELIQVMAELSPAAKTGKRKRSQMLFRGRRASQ
Sequence of recombinant human IL-23 (free state) (P29460 23-328 limits assumed): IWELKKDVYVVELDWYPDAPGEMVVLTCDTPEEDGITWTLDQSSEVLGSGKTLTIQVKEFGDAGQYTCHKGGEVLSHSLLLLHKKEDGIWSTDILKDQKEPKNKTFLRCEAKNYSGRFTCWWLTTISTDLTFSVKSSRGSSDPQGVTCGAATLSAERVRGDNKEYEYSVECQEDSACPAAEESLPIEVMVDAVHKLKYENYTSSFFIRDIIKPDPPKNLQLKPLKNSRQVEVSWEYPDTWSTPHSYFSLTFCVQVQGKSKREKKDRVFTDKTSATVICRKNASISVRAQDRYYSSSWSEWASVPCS
Sequence of recombinant human IL-23 (free state) (Q9NPF7 20-189 limits assumed): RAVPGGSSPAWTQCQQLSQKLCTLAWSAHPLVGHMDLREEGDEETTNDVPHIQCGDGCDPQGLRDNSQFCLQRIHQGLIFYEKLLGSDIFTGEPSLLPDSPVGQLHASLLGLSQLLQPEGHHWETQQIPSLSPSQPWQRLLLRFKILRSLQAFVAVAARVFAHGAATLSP
Sequence of recombinant human IL-12 (free state) (P29460 23-328 limits assumed): as the sequence (P29460 23-328 limits assumed) above
Sequence of recombinant human IL-12 (free state) (P29459 23-219 limits assumed): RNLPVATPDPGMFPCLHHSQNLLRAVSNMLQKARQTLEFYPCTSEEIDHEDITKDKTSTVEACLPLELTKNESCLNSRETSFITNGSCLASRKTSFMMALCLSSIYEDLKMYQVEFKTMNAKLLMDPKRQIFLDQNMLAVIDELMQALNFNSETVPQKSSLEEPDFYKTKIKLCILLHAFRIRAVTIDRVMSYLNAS
Sequence of IL-23 receptor complex (IL-12Rβ1, IL-23R) (Q5VWK5 24-629 limits assumed, chain 2 of 2, other chains not shown): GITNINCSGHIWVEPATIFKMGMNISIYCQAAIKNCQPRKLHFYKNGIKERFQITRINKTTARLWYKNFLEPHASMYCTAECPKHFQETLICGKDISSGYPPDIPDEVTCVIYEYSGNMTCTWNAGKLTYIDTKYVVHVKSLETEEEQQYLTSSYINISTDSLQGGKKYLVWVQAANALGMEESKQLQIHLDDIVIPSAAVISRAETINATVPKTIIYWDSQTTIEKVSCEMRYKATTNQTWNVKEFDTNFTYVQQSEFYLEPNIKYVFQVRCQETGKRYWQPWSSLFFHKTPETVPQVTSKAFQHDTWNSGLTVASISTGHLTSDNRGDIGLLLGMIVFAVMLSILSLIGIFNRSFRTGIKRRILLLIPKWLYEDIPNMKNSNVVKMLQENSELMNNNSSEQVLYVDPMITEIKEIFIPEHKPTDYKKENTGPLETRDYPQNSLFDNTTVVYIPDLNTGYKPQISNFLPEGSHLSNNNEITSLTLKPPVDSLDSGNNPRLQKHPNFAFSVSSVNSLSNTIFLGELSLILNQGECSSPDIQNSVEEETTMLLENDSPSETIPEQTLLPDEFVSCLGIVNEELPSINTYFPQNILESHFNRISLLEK
Sequence of human IL-10 receptor (hIL-10Rα, hIL-10Rβ) (human) (Q13651 22-578, chain 1 of 2): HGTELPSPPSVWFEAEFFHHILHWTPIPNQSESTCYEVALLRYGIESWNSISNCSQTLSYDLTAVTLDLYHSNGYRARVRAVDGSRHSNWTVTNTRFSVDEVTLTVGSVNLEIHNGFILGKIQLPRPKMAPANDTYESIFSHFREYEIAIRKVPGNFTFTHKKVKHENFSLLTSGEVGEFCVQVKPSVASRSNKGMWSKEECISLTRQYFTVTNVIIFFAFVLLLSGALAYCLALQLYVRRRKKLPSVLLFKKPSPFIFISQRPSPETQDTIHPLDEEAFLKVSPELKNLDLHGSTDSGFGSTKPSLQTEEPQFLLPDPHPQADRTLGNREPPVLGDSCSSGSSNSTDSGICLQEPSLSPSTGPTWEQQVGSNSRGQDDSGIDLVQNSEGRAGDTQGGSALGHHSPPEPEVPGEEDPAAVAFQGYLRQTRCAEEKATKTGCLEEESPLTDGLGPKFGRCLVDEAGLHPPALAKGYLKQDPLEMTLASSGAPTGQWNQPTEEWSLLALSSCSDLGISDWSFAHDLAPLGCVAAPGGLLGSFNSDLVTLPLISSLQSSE
Sequence of human IL-10 receptor (hIL-10Rα, hIL-10Rβ) (human) (Q08334 20-325, chain 2 of 2, further chain): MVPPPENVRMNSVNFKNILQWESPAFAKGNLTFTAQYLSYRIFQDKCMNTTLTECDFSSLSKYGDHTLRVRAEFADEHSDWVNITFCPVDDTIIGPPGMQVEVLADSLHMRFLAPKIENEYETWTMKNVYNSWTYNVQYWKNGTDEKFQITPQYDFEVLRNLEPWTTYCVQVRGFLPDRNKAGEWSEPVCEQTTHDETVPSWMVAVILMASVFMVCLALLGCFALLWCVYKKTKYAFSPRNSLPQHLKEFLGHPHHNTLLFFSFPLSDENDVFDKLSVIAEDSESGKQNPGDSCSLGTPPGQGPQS

For the substance “recombinant human IFN-γ (free state) (from UniProt P01579 24-166) (ligand)”, in experiment [1], the IFN-γ biological activity, HEK-IFN-γ cells turned out to be 100%; the IFN-γ biological activity, HEK-PD-1-IFN-γ cells stood at 100%; the PD-L1 expression (anti-PD-L1 APC, FACS), HEK-CD4-IFN-γ cells turned out to be 67 MFI; the PD-L1 expression (anti-PD-L1 APC, FACS), HEK-IFN-γ cells is 75 MFI.
Turning to “recombinant human IL-10 (free state) (from UniProt P22301 19-178) (ligand)”, in experiment [2], the IL-10 biological activity, HEK-IL-10 cells amounted to 100% and the IL-10 biological activity, HEK-PD-1-IL-10 cells stood at 100%.
As to “recombinant human IL-12 (free state) (from UniProt P29460 23-328; P29459 23-219) (ligand)”, in experiment [3], the IL-12 biological activity (IFN-γ release), CD4+ T cells amounted to 100%; the IL-12 biological activity (IFN-γ release), CD8+ T cells is 100%; the IL-12 biological activity, HEK-IL-12 was 100%; the IL-12 biological activity, HEK-IL-12-PD-1 is 100%. Further, in experiment [3], the IL-12 biological activity, HEK-IL-12-PD-1 (high) turned out to be 100%; the IL-12 biological activity, HEK-IL-12-PD-1 (low) amounted to 100%; the IL-12 biological activity, HEK-IL-12 cells is 100%; the IL-12 biological activity, HEK-PD-1-IL-12 was 100%. Further, in experiment [3], the IL-12 biological activity, HEK-PD-1-IL-12 cells came to 100% and the PBMC (IFN-γ ng/ml) came to 2300 ng/mL.
Consider “recombinant human IL-23 (free state) (from UniProt P29460 23-328; Q9NPF7 20-189) (ligand)”, for which, in experiment [4], the IL-23 biological activity (IFN-γ release), CD4+ T cells was determined as 100%; the IL-23 biological activity (IFN-γ release), CD8+ T cells worked out at 100%; the IL-23 biological activity, HEK-IL-23 cells was 100%; the IL-23 biological activity, HEK-PD-1-IL-23 cells was determined as 100%.
